Patent US5747253

System: c-Myc, P01106-1
Assay: competition
Conditions: 2'-OMe; 50 uM pool vs myc PS site; FIG. 5 labels this pool SEQ ID NO:33

Chain of c-Myc, P01106-1 (P01106 16-454): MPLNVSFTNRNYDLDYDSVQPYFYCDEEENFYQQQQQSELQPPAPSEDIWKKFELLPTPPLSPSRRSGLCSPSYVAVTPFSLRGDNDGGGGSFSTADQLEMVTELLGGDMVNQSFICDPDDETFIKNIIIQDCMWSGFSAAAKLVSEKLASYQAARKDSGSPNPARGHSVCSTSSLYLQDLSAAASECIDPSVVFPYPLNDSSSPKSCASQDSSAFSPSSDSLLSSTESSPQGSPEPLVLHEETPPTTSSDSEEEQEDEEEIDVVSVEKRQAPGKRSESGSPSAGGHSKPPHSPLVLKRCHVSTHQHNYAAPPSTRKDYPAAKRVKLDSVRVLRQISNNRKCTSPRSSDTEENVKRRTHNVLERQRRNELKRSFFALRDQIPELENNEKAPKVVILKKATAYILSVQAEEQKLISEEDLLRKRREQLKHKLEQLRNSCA

GCGNNNCNNNNNNCGC [2'-OMe pool X=C]
binding signal: 50 % inhibition
